Test results: US20260193348A1 (ANTENGENE BIOLOGICS, published 2026)

Target: T1, CD3 on T cells / Jurkat cells (human, UniProt P07766 23-207; P04234 22-171; P09693 23-182)
T1 construct: whole, on cells; Native CD3 complex on CD3+ T cells isolated from normal donors or on Jurkat cells; also called human CD3; CD3+ T cells
Assay: FACS on Jurkat cells

T1 sequence (P07766 23-207, chain 1 of 3): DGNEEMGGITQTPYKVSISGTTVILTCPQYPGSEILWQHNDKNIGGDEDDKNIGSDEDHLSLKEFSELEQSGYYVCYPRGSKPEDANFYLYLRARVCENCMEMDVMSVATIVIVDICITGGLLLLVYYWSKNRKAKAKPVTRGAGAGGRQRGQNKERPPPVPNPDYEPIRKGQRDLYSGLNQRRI
T1 sequence (P04234 22-171, chain 2 of 3): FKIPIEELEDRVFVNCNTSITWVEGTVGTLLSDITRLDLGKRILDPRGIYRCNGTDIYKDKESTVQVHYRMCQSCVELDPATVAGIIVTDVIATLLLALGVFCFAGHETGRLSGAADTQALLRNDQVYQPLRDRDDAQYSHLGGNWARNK
T1 sequence (P09693 23-182, chain 3 of 3): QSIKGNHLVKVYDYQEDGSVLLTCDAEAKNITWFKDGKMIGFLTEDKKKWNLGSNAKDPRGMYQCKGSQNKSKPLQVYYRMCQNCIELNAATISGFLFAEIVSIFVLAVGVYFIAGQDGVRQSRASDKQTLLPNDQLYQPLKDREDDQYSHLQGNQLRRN

Row | binding result | Binder
1 | binds | Bis-40E9-L2H3-D99E.H (bispecific antibody, L234A/L235A) VH: EVQLVQSGAEVKKPGASVKVSCKASGYTFTSYVIHWVRQAPGQGLEWMGYFNPYNDGTKYNEEFKGRVTLTSDKSTSTAYMELRSLRSDDTAVYYCARGGVRRYFDVWGQGTTVTVSS VL: DIQMTQSPSSLSASVGDRVTITCRASQDIGSNLNWLQQKPGKAIKRLIYATFGLDSGVPSRFSGSRSGTDFTLTISSLQPEDFATYYCQQYASFPYTFGGGTKVEIK scFv: EVQLVQSGAEVKKPGSSVKVSCKASGYTFSSYVIHWVRQAPGQCLEWMGYINPYNDVIKYNEKFKGRVTLTSDKSTSTAYMELSSLRSEDTAVYYCARESYYSYDGFAYWGQGTLVTVSSGGGGSGGGGSGGGGSGGGGSEIVLTQSPDFQSVTPKEKVTITCSASSSVSYMHWYQQKPDQSPKRLIYDTSKLASGVPSRFSGSGSGTDFTLTINSLEAEDAATYYCQQWSSNPPTFGCGTKVEIK
2 | binds | Bis-40E9-L2H3-G106A.H (bispecific antibody, L234A/L235A) VH: EVQLVQSGAEVKKPGASVKVSCKASGYTFTSYVIHWVRQAPGQGLEWMGYFNPYNDGTKYNEEFKGRVTLTSDKSTSTAYMELRSLRSDDTAVYYCARGGVRRYFDVWGQGTTVTVSS VL: DIQMTQSPSSLSASVGDRVTITCRASQDIGSNLNWLQQKPGKAIKRLIYATFGLDSGVPSRFSGSRSGTDFTLTISSLQPEDFATYYCQQYASFPYTFGGGTKVEIK scFv: EVQLVQSGAEVKKPGSSVKVSCKASGYTFSSYVIHWVRQAPGQCLEWMGYINPYNDVIKYNEKFKGRVTLTSDKSTSTAYMELSSLRSEDTAVYYCARDSYYSYDAFAYWGQGTLVTVSSGGGGSGGGGSGGGGSGGGGSEIVLTQSPDFQSVTPKEKVTITCSASSSVSYMHWYQQKPDQSPKRLIYDTSKLASGVPSRFSGSGSGTDFTLTINSLEAEDAATYYCQQWSSNPPTFGCGTKVEIK
3 | binds | Bis-40E9-L2H4 (bispecific antibody, L234A/L235A) VH: EVQLVQSGAEVKKPGASVKVSCKASGYTFTSYVIHWVRQAPGQGLEWMGYFNPYNDGTKYNEEFKGRVTLTSDKSTSTAYMELRSLRSDDTAVYYCARGGVRRYFDVWGQGTTVTVSS VL: DIQMTQSPSSLSASVGDRVTITCRASQDIGSNLNWLQQKPGKAIKRLIYATFGLDSGVPSRFSGSRSGTDFTLTISSLQPEDFATYYCQQYASFPYTFGGGTKVEIK scFv: EVQLVQSGAEVKKPGSSVKVSCKASGYTFSSYVIHWVRQAPGQCLEWIGYINPYNDVIKYNEKFKGRATLTSDKSTSTAYMELSSLRSEDTAVYYCARDSYYSYDGFAYWGQGTLVTVSSGGGGSGGGGSGGGGSGGGGSEIVLTQSPDFQSVTPKEKVTITCSASSSVSYMHWYQQKPDQSPKRLIYDTSKLASGVPSRFSGSGSGTDFTLTINSLEAEDAATYYCQQWSSNPPTFGCGTKVEIK
4 | binds | Bis-40E9-L3H1 (bispecific antibody, L234A/L235A) VH: EVQLVQSGAEVKKPGASVKVSCKASGYTFTSYVIHWVRQAPGQGLEWMGYFNPYNDGTKYNEEFKGRVTLTSDKSTSTAYMELRSLRSDDTAVYYCARGGVRRYFDVWGQGTTVTVSS VL: DIQMTQSPSSLSASVGDRVTITCRASQDIGSNLNWLQQKPGKAIKRLIYATFGLDSGVPSRFSGSRSGTDFTLTISSLQPEDFATYYCQQYASFPYTFGGGTKVEIK scFv: EVQLVQSGAEVKKPGSSVKVSCKASGGTFSSYVIHWVRQAPGQCLEWMGYINPYNDVIKYNEKFKGRVTITADKSTSTAYMELSSLRSEDTAVYYCARDSYYSYDGFAYWGQGTLVTVSSGGGGSGGGGSGGGGSGGGGSEIVLTQSPDFQSVTPKEKVTITCSASSSVSYMHWYQQKPDQSPKRWIYDTSKLASGVPSRFSGSGSGTDYTLTINSLEAEDAATYYCQQWSSNPPTFGCGTKVEIK
5 | binds | Bis-40E9-L2H1 (bispecific antibody, Fab-scFv-Fab (2+1): two humanized anti-GPRC5D Fabs and one anti-CD3 scFv (VH-(GGGGS)4-VL) joined by (GGGGS)2 linkers to CH1 of one Fab and to CH2; L234A/L235A) VH: EVQLVQSGAEVKKPGASVKVSCKASGYTFTSYVIHWVRQAPGQGLEWMGYFNPYNDGTKYNEEFKGRVTLTSDKSTSTAYMELRSLRSDDTAVYYCARGGVRRYFDVWGQGTTVTVSS VL: DIQMTQSPSSLSASVGDRVTITCRASQDIGSNLNWLQQKPGKAIKRLIYATFGLDSGVPSRFSGSRSGTDFTLTISSLQPEDFATYYCQQYASFPYTFGGGTKVEIK scFv: EVQLVQSGAEVKKPGSSVKVSCKASGGTFSSYVIHWVRQAPGQCLEWMGYINPYNDVIKYNEKFKGRVTITADKSTSTAYMELSSLRSEDTAVYYCARDSYYSYDGFAYWGQGTLVTVSSGGGGSGGGGSGGGGSGGGGSEIVLTQSPDFQSVTPKEKVTITCSASSSVSYMHWYQQKPDQSPKRLIYDTSKLASGVPSRFSGSGSGTDFTLTINSLEAEDAATYYCQQWSSNPPTFGCGTKVEIK
6 | binds | Bis-40E9-L2H3-D56G.H (bispecific antibody, L234A/L235A) VH: EVQLVQSGAEVKKPGASVKVSCKASGYTFTSYVIHWVRQAPGQGLEWMGYFNPYNDGTKYNEEFKGRVTLTSDKSTSTAYMELRSLRSDDTAVYYCARGGVRRYFDVWGQGTTVTVSS VL: DIQMTQSPSSLSASVGDRVTITCRASQDIGSNLNWLQQKPGKAIKRLIYATFGLDSGVPSRFSGSRSGTDFTLTISSLQPEDFATYYCQQYASFPYTFGGGTKVEIK scFv: EVQLVQSGAEVKKPGSSVKVSCKASGYTFSSYVIHWVRQAPGQCLEWMGYINPYNGVIKYNEKFKGRVTLTSDKSTSTAYMELSSLRSEDTAVYYCARDSYYSYDGFAYWGQGTLVTVSSGGGGSGGGGSGGGGSGGGGSEIVLTQSPDFQSVTPKEKVTITCSASSSVSYMHWYQQKPDQSPKRLIYDTSKLASGVPSRFSGSGSGTDFTLTINSLEAEDAATYYCQQWSSNPPTFGCGTKVEIK
